Assay results: the DeepSol protein solubility set

Assay: soluble on expression in E. coli; label from the status in PepcDB or PDB records

Sequence	soluble on expression in E. coli
MTPNRRSTDSYNMLGASFDFDPDFSLLSNKTHKNKNPKPPVKLLPYRHGSNTTSSDSDSYIFNSGSGSSDAETPAPVAPIFISLEDVLLNGQLIDFAIDPSGVKFLEANYPLDSEDQIRKAVFEKFTESTTLFVGLCHSRNGNFIVQKLVELATPAEQRELLRQMIDGGLLAMCKDKFACRVVQLALQKFDHSNVFQLIQELSTFDLAAMCTDQISIHVIQRVVKQLPVDMWTFFVHFLSSGDSLMAVCQDKYGCRLVQQVIDRLAENPKLPCFKFRIQLLHSLMTCIVRNCYRLSSNEFANYVIQYVIKSSGIMEMYRDTIIDKCLLRNLLSMSQDKYASHVIEGAFLFAPPALLHEMMEEIFSGYVKDVESNRDALDILLFHQYGNYVVQQMISICTAALIGKEERELPPAILLLYSGWYEKMKQRVLQHASRLERFSSGKKIIDSVMRHGVPTAAAVNAQAAPSLMELTAQFDAMFPSFLAR	not soluble
MSEVLNRQSREITTIVSQPNISRPNYQREKGKERLLGIKATESSNKAGQSFVPQLNPSGTLFTISMKPPAKINTGYTPVDEQKEVKAEVRNSEITEKSFGQAKFIGVSAGNTVGYVIPNLEPGLSQYLQANRSLRAIGVISSRVGAAAQIMAADEAVKKTNSELIRLELARDELGGPGHGVFALFGAEDVADVIRAVEIALKATEEYYQNIKNTPAGKIETHYTARAAAALNKAFGAPLNQAFGIIIGAPAGVGLLMSDTALKTAHVTMVSFWGPSVVQAFANEVWFTVTGDSAAVKNALEAAREVGLQVLAEFRA	not soluble
MDSYGYIETMGLLTAIEAADAALKAANVVFTNCYIVKGGIVTVELAGDVAAVTAAVEAGSESARKLGNFISKNVIARVDDETKKILKGDTFISDNNKDGKTEKEISEEELLQNEMEKEEESIEELDALEEIIKADIPTAEGDIPLYDEVIKSPEFSELENDEEAKIITETVKRNDSDGEPYETQEKITVIEEEINTKQTNNNTDYENMKVTDLRGIVKELNSHLTWNQVKAMNKKKLVETLKKNKREK	not soluble
MSLVIFIMKKRYICILPYSLSYGGVFIDCKEVIANYWNFRSSTYKNGINGFDEEERAVWKQIFENSLASGKRLKVLDVGTGTGFLALLFAEMGHEVSGIDLSEGMLEKARHNADNMGLEISLFHGDAENLPFEDCSFDLVVNKYLLWTLQEPASAVREWKRVLKPGGMIFAIDGNWFDPRPDRYIKRMLYGLAERFAKKNQYNLIFKKSYGPIRNSLPLYEKISPKNISFLFSETGLMNTEISPLLEVQKFQRNRHSFSRRIFENNSIFLISGQKNEGHHHHHH	not soluble
MAFRSKFAVLDESWTYVRVRRGPRRQNLWIWNALIDGVPFFVTGDRDYNTFRLLWLSLPKCEVHYTDDYPIYQVLYHHVVGKKYTHTVESYNSFCRSHLVRLARDTKAVNRSRAMIDYSLDLLNVMYPQLEHHHHHH	not soluble
FNCLGMSNRDFLEGVSGATWVDLVLEGDSCVTIMSKDKPTIDVKMMNMEAANLAEVRSYCYLATVSDLSTKAACPTMGEAHNDKRADPAFVCRQGVVDRGWGNGCGLFGKGSIDTCAKFACSTKAIGRTILKENIKYEVAIFVHGPTTVESHGNYSTQVGATQAGRFSITPAAPSYTLKLGEYGEVTVDCEPRSGIDTNAYYVMTVGTKTFLVHREWFMDLNLPWSSAGSTVWRNRETLMEFEEPHATKQSVIALGSQEGALHQALAGAIPVEFSSNTVKLTSGHLKCRVKMEKLQLKGTTYGVCSKAFKFLGTPADTGHGTVVLELQYTGTDGPCKVPISSVASLNDLTPVGRLVTVNPFVSVATANAKVLIELEPPFGDSYIVVGRGEQQINHHWHKSGS	soluble
MGSDKIHHHHHHMNTVTIIGCGWFGLPLATQLVKQGIKVKASKRHPEDLVQLQQAGVDAYQLNLANVNSQAKNSSLFDADAIVINLPPGLRRGETDYLGYLTQLITLMGEHQYQKIIFISTTGVYPSLDQTVTEQDAAAFNDTSRTLLQAEAMFSAMKNSCIVRFSGLVGPKRHPGRFFAGKTDVSGANVAVNLVHLDDCIAAVSLILSRNDTLPIYNLAANAHPTRGEFYVAAAEHLGLTAPEFNQQQQPNKTIDGQLICHHLGFTYAFNNPFKMLDAC	not soluble
MSLSNLTSQLHNFFSAQLAGVSDEVRVSIRTAPNLLPPCEQPLLSMSNNSRLWGNVNVLARCGNDKRYLQVNVQATGNYVVAAMPIARGGKLEAGNVKLKRGRLDTLPPRTVLDINQLVDAISLRDLSPDQPIQLTQFRQAWRVKAGQRVNVIASGDGFSANAEGQALNNAAVAQNARVRMVSGQVVSGVVDADGNILINLEGHHHHHH	soluble
MKKIHMIPAALLIGSLALVSCAPSQPTQNAQTVSSVMTETPTYTSSSRSVESTAGTIAASEEATMTLLENSSGDPGSDSGGARYSLNSLKVSEQAAANAVLKAVLNDVSYQEFADSSYLEITGTPSADGTWGISFGGPSESASVEFSDGSISFSPVDMTVPATRLPQMGAFYETLTEEQLGMLETGLAVSTVDSSQQEMLLDLVSNSIGLADTETTATAISKIRATLSETYLFGTPDGLTLALSGPHVDFEVSHQGSTAKITYRDPSTDTLTAEDRVDTASVAAAPPEVVLEHHHHHH	not soluble
AELLLSDNEDKKQRIKEEKQLKLVKWNFQAPTDEHISQLQTLLGNQAKVSLMSQLFHKDFKQHLAALDSLVRLADTSPRSLLSNSDLLLKWCTLRFFETNPAALIKVLELCKVIVELIRDTETPMSQEEVSAFVPYLLLKTGEAKDNMRTSVRDIVNVLSDVVGPLKMTPMLLDALKSKNARQRSECLLVIEYYITNAGISPLKSLSVEKTVAPFVGDKDVNVRNAAINVLVACFKFEGDQMWKAAGRMADKDKSLVEERIKRTGV	soluble
MRTLFFIPSMGSVRLPLIDFLVKNDIEYVILSRRNHVAVQREIALDMFLEMKDYDTLAFLDEDVVPIEIDFQKVEAKFNEGYDVVCGYYYLKTLRGYSVYRKDWEKEIFDGEVNGCGLGFTFIKREFLEKIKRPAFLAFKPIESPHWIGEDVYFFSTHKPRTYALSSLKAYHFIDERLALSPDRKLILQNDHVARIKHHHHHH	soluble
ANRHPAKVVSTRYFPQARVMELVLAPSNNGQGKPWQGHKAGQFAYVRFGNEDPHPFTIVSGEHEPEVRFLIKELGDFTTDLYHRVKIGEEVMVEGPYGRLA	not soluble
MTVISSHWWRCISLNSKSNRCSSSSGNHLMMGGKKTCVLMRATFMVIATDYEFERRWCRRTGTIAGCHLISKQAEVGEMMCMIEL	not soluble
MAPTMNNGWMDSLSWIKSETPENSVVTCWWDNGHIYTWATRKMVTFDGGSQNTPRAYWVGHAFSTSDENLSVGILRMLATSGDSAYDDDSILIKKTGSIKDTVDILNKILPLTRTEAKASLVNNYDLTDAEAEEVLDLTHPKVTNPDYLITYNRMTSIASVWSMFGNWNFSLPASTENSDREMGLEHHHHHH	soluble
MAHHHHHHMPVAPLHPELQRVLKENRRTRAFDPAAWIEMKCAKLNDYMQRCGLKACVTSVSGGIDSAVVLAMCAHAMRAHNSPIQKNVGLCQPIHSSDWALRRGKENIAACGATEVVVDQTALHTELATLVERAAGIEGGAFARGQLRSYMRTPPGFYVAQLLTQEGTPAVVMGTGNKDEDFYLGYFCKAGDGVVDVQIISDLHKSEVLLVAEVLGVPENTRHAAPSADLWEGQTDEDELGFPYDFVELFTEWYLKQRETTKIKFLNSLCDEARNQFERYVAACELVHRRNAHKLQGQVNL	not soluble
MGSDKIHHHHHHMKYDIPTMTAEAVSLLKSLISIPSISREETQAADFLQNYIEAEGMQTGRKGNNVWCLSPMFDLKKPTILLNSHIDTVKPVNGWRKDPFTPREENGKLYGLGSNDAGASVVSLLQVFLQLCRTSQNYNLIYLASCEEEVSGKEGIESVLPGLPPVSFAIVGEPTEMQPAIAEKGLMVLDVTATGKAGHAARDEGDNAIYKVLNDIAWFRDYRFEKESPLLGPVKMSVTVINAGTQHNVVPDKCTFVVDIRSNELYSNEDLFAEIRKHIACDAKARSFRLNSSRIDEKHPFVQKAVKMGRIPFGSPTLSDQALMSFASVKIGPGRSSRSHTAEEYIMLKEIEEAIGIYLDLLDGLKL	not soluble
MGSDKIHHHHHHMNFNELKTFVALVETKHFTKTADRLYISQPTVSLHLKHLEEHFGQSLIHRHTFNKTIEISEAGWIVYRHAKEILHQAIRLEQEIDELEGITRGTLRIAATHTIYEAMLEEMIHDFLLVYPDVSVDARVMNQEQVEQALLHYEIDLGMVEGLHRSHQIEAIPFATDRLRIIGHHHLVPEQATWIYREEGSAARLALETWLQTQAIVPKRIITVYSNRLIKQLIKNGTGISILSERLAGSLLESERFQTYDDSQIDPRMFQFITLKGETTRLSQKWINQHGGSD	not soluble
MAKTIFYFSYRKTEELHAKAKELKKITTDYGYELTDDYQKANVIISIGGDGAFLKSVRETGFRQDCLYAGIALTEQLGQYCDFHINQLDEIIKAAIEDRWLVRRYPTIYGTVNNTKAFYVLNEFNIRSSIIRTLTMDLYINDSHFETFRGDGMVISTPTGSTAYNKSVNGSIVDPLLPSMQVSELASINNNKFRTLGSSFILSPKRKLRIEIASEEGNNEFPMIGMDSEALSIQHVHEVNLEVGDRFINIIKLPKNSFWDKVKRNFLLEHHHHHH	soluble
MSLILRRVFIAIGCVLFSPLSQANSSLGEVNIELRGNVVDFTCAVVAGDSNKSVNLGTWPTKQLHAAGDATQPVAFSLKLEGCPPGSASITFSGTPAPGTALLALADTAMAQKLAIEIRDGDQRRLPLEQASKAVDIDNNGNATLKFYANYIALADGVQPGLANADATFLINYNEGGSHHHHHH	soluble
MAADISESSGADCKGDPRNSAKLDADYPLRVLYCGVCSLPTEYCEYMPDVAKCRQWLEKNFPNEFAKLTVENSPKQEAGISEGQGTAGEEEEKKKQKRGGRGQIKQKKKTVPQKVTIAKIPRAKKKYVTRVCGLATFEIDLKEAQRFFAQKFSCGASVTGEDEIIIQGDFTDDIIDVIQEKWPEVDDDSIEDLGEVKK	not soluble
MEIKEFSACNLESLRKLYLDSRRDSFPWLKADSFRIEDFDRDSQGERIWLSEVLGNVVGFISIWEPDNFIHHLYVATEYQGQGVGSMLLNGAKMKYGNLSLKCMVQNQKALNFYSSQGFEIVSQVDDELGGYYYMSFSAQT	not soluble
MIDTTVFQNKTAVYYTLGCKLNFSETSTIGKILREAGVRTARKGEKADICVVNTCSVTEMADKKCRQAIHRLVKQHPGAFVVVTGCYAQLKPGDVAKIKGVDVVLGAEQKGDLLQYLGDLHKHEEGEAFTTTTKDIRSFSPSCSRGDRTRFFLKVQDGCDYFCSYCTIPFARGRSRNGTVASMVEQARQAAAEGGKEIVLTGVNIGDFGKTTGETFFDLVKALDQVEGIERYRISSIEPNLLTDEIIEFVSRSRRFMPHFHIPLQSGCDEVLKLMRRRYDTALFASKVKKIKEVMPDAFIGVDVIVGTRGETEEYFEQAYQFISGLDVTQLHVFSYSERPGTQALKIDYVVSPEEKHQRSQRLLTLSDEKTRAFYTRHIGQTMQVLMEKSKAGTPMHGFTANYIRVEVENDESLDNQMINVRLGEFNEDMTALKGTILMNYEVLEHHHHHH	soluble
MSVSPVQPDPSVIGGVPKAPFVLKPNLARLFNDRASRFEALAQGSHLAPYLNFLAGITRIQSELVSALPPPEPVPADRVERARANAMPPIDRAAMGGSPDCREVLQQFFEKAEALEKPAAAAEALAQVRTADEEMLTWMIGNVMADDLPVESLAHHLYVAAAMQIQAARLAAGLDGSRLVPIRVGVCPACGGRPVASMVIGFHGAEGARYASCSCCATMWNEVRVKCLACGSTKGIGYQAVETGDEEATVKAEVCDTCNSWMKILYQNKNPSLDVVADDVASLGLDLLMKDTEYKRAGFDPFLMGY	not soluble
